The text below walks through data of patent US20240270821A1, “GIP/GLP1/GCG TRI-RECEPTOR AGONISTS AND USES THEREOF” (priority 2023, published 2024).

Residue numbers refer to the chain shown, from its start.

T1: human GIP receptor (human) (UniProt P48546)
T1 sequence (looked up): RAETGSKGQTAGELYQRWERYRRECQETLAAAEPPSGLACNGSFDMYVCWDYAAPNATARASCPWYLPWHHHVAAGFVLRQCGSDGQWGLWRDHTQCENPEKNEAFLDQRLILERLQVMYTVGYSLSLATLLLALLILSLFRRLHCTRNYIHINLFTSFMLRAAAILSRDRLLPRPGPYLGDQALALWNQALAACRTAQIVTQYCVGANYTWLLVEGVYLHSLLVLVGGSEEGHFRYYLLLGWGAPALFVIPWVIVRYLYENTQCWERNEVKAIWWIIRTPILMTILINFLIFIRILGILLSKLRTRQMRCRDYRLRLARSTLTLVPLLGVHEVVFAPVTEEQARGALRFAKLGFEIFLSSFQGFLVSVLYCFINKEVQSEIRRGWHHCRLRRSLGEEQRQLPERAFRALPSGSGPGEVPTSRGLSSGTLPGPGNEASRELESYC

B1: Example 746 (peptide)
chain: YXQGTXTSDXXIXLDXKAAXEFIEXLIEGGPSSGEPPPSGGGE
modifications: synthetic construct; SITE 2: note = 2-Aminoisobutyric Acid; SITE 6: note = alpha-methyl-2-fluoro-L-phenylalanine; SITE 10: note = 3-(4-Pyridyl)-L-alanine; SITE 11: note = alpha-methyl-L-serine; SITE 13: note = alpha-methyl-leucine; SITE 16: note = L-ornithine; SITE 17: note = Lysine is chemically mo
B2: Example 748 (peptide)
chain: B1 chain
modifications: synthetic construct; SITE 2: note = 2-Aminoisobutyric Acid; SITE 6: note = alpha-methyl-2-fluoro-L-phenylalanine; SITE 10: note = 3-(4-Pyridyl)-L-alanine; SITE 11: note = alpha-methyl-L-serine; SITE 13: note = alpha-methyl-leucine; SITE 16: note = L-ornithine; SITE 17: note = Lysine is chemically mo
B3: Example 724 (peptide)
chain: B1 chain with E35A, G41T, E43X
modifications: synthetic construct; SITE 2: note = 2-Aminoisobutyric Acid; SITE 6: note = alpha-methyl-2-fluoro-L-phenylalanine; SITE 10: note = 3-(4-Pyridyl)-L-alanine; SITE 11: note = alpha-methyl-L-serine; SITE 13: note = alpha-methyl-leucine; SITE 16: note = L-ornithine; SITE 17: note = Lysine is chemically mo
B4: Example 725 (peptide)
chain: B1 chain with E35A, G41T, G42E
modifications: synthetic construct; SITE 2: note = 2-Aminoisobutyric Acid; SITE 6: note = alpha-methyl-2-fluoro-L-phenylalanine; SITE 10: note = 3-(4-Pyridyl)-L-alanine; SITE 11: note = alpha-methyl-L-serine; SITE 13: note = alpha-methyl-leucine; SITE 16: note = L-ornithine; SITE 17: note = Lysine is chemically mo
B5: Example 745 (peptide)
chain: B1 chain with E35A
modifications: synthetic construct; SITE 2: note = 2-Aminoisobutyric Acid; SITE 6: note = alpha-methyl-2-fluoro-L-phenylalanine; SITE 10: note = 3-(4-Pyridyl)-L-alanine; SITE 11: note = alpha-methyl-L-serine; SITE 13: note = alpha-methyl-leucine; SITE 16: note = L-ornithine; SITE 17: note = Lysine is chemically mo
B6: Example 747 (peptide)
chain: B1 chain with E35A
modifications: synthetic construct; SITE 2: note = 2-Aminoisobutyric Acid; SITE 6: note = alpha-methyl-2-fluoro-L-phenylalanine; SITE 10: note = 3-(4-Pyridyl)-L-alanine; SITE 11: note = alpha-methyl-L-serine; SITE 13: note = alpha-methyl-leucine; SITE 16: note = L-ornithine; SITE 17: note = Lysine is chemically mo
B7: Example 682 (peptide)
chain: YXQGTXTSDXSIXLDXKAQXXFIEXLIEGGPSSGEPPPSGE
modifications: synthetic construct; SITE 2: note = 2-Aminoisobutyric Acid; SITE 6: note = alpha-methyl-2-fluoro-L-phenylalanine; SITE 10: note = 3-(4-Pyridyl)-L-alanine; SITE 13: note = alpha-methyl-leucine; SITE 16: note = L-ornithine; SITE 17: note = Lysine is chemically modified through conjugation of the epsil
B8: Example 695 (peptide)
chain: B7 chain with S11X, Q19A, X21E, I27V, E41S
modifications: synthetic construct; SITE 2: note = 2-Aminoisobutyric Acid; SITE 6: note = alpha-methyl-2-fluoro-L-phenylalanine; SITE 10: note = 3-(4-Pyridyl)-L-alanine; SITE 11: note = alpha-methyl-L-serine; SITE 13: note = alpha-methyl-leucine; SITE 16: note = L-ornithine; SITE 17: note = Lysine is chemically mo
B9: Example 698 (peptide)
chain: B7 chain with S11X, S39E
modifications: synthetic construct; SITE 2: note = 2-Aminoisobutyric Acid; SITE 6: note = alpha-methyl-2-fluoro-L-phenylalanine; SITE 10: note = 3-(4-Pyridyl)-L-alanine; SITE 11: note = alpha-methyl-L-serine; SITE 13: note = alpha-methyl-leucine; SITE 16: note = L-ornithine; SITE 17: note = Lysine is chemically mo
B10: Example 707 (peptide)
chain: B7 chain with S11X, Q19A, X21E, E41S
modifications: synthetic construct; SITE 2: note = 2-Aminoisobutyric Acid; SITE 6: note = alpha-methyl-2-fluoro-L-phenylalanine; SITE 10: note = 3-(4-Pyridyl)-L-alanine; SITE 11: note = alpha-methyl-L-serine; SITE 13: note = alpha-methyl-leucine; SITE 16: note = L-ornithine; SITE 17: note = Lysine is chemically mo
B11: Example 722 (peptide)
chain: B7 chain with S11X, Q19A, X21E, E35A, E41X
modifications: C-terminal γGlu; C-terminal amide; synthetic construct; SITE 2: note = 2-Aminoisobutyric Acid; SITE 6: note = alpha-methyl-2-fluoro-L-phenylalanine; SITE 10: note = 3-(4-Pyridyl)-L-alanine; SITE 11: note = alpha-methyl-L-serine; SITE 13: note = alpha-methyl-leucine; SITE 16: note = L-ornithine; SITE 17: note = Lysine is chemically mo
B12: Example 749 (peptide)
chain: B7 chain with S11X, X21E, I27V, E35A
modifications: synthetic construct; SITE 2: note = 2-Aminoisobutyric Acid; SITE 6: note = alpha-methyl-2-fluoro-L-phenylalanine; SITE 10: note = 3-(4-Pyridyl)-L-alanine; SITE 11: note = alpha-methyl-L-serine; SITE 13: note = alpha-methyl-leucine; SITE 16: note = L-ornithine; SITE 17: note = Lysine is chemically mo

The first assay deals with T1, human GIP receptor (human). In words: cell-based or functional assay.
Turning to B1, the Relative cAMP EC50 stood at 0.0119 nM and the cAMP Rel EC50 (1% HSA) is 1.44 nM.
B2 had a Relative cAMP EC50 of 0.0105 nM and a cAMP Rel EC50, nM (1% HSA) of 0.865 nM.
On to B3, for which the Relative cAMP EC50 was found to be 0.0102 nM and the cAMP Rel EC50 (1% HSA) came out at 1.06 nM.
In the same order, the values of B4 are 0.0126 nM and 1.39 nM.
As to B5, the Relative cAMP EC50 was 0.012 nM and the cAMP Rel EC50 (1% HSA) came to 1.36 nM.
Consider B6, for which the Relative cAMP EC50 amounted to 0.00955 nM and the cAMP Rel EC50, nM (1% HSA) turned out to be 0.651 nM.
In the case of B7, the cAMP Rel EC50 (1% HSA) was determined as 0.415 nM.
Same read-out and setting: under B8 stands 0.772 nM.
In turn, B9 came in with a Relative cAMP EC50 of 0.0112 nM and a cAMP Rel EC50 (1% HSA) of 0.824 nM.
B10 yielded a Relative cAMP EC50 of 0.0107 nM and a cAMP Rel EC50 (1% HSA) of 1.05 nM.
With B11, the Relative cAMP EC50 is 0.01 nM and the cAMP Rel EC50 (1% HSA) is 0.953 nM.
With B12, the Relative cAMP EC50 amounted to 0.00718 nM and the cAMP Rel EC50, nM (1% HSA) amounted to 1.47 nM.

For another assay, the target named is human glucagon receptor (human) (UniProt P47871). In words: cell-based or functional assay.
Sequence of human glucagon receptor (human) (P47871 26-477): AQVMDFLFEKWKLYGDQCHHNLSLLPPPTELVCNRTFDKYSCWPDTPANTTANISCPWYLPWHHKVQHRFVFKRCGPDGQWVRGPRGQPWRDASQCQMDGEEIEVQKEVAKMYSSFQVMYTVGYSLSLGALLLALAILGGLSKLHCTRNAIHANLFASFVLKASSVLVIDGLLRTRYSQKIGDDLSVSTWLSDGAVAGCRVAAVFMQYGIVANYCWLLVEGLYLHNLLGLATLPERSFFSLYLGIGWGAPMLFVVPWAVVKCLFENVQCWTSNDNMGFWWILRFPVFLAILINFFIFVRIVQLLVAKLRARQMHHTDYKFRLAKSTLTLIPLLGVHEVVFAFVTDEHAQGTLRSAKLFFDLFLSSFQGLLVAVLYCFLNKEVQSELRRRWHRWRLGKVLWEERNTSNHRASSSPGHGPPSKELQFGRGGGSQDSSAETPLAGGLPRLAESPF
As for B1, the Relative cAMP EC50 amounted to 1.62 nM and the cAMP Rel EC50 (1% HSA) was 255 nM.
As to B2, the Relative cAMP EC50 is 1.42 nM and the cAMP Rel EC50, nM (1% HSA) was 156 nM.
Take B3: the Relative cAMP EC50 was determined as 1.74 nM and the cAMP Rel EC50 (1% HSA) was determined as 209 nM.
The matching figures for B4: 1.49 nM and 244 nM.
For the molecule B5, the Relative cAMP EC50 is 1.86 nM and the cAMP Rel EC50 (1% HSA) was determined as 266 nM.
B6 returned a Relative cAMP EC50 of 1.71 nM and a cAMP Rel EC50, nM (1% HSA) of 169 nM.
B7 displayed a cAMP Rel EC50 (1% HSA) of 127 nM.
B8 registered a cAMP Rel EC50 (1% HSA) of 164 nM.
On to B9, for which the Relative cAMP EC50 is 1.53 nM and the cAMP Rel EC50 (1% HSA) came out at 124 nM.
On to B10, for which the Relative cAMP EC50 turned out to be 1.06 nM and the cAMP Rel EC50 (1% HSA) came to 199 nM.
For B11, the Relative cAMP EC50 is 1.71 nM and the cAMP Rel EC50 (1% HSA) came to 170 nM.
The molecule B12 returned a Relative cAMP EC50 of 2.21 nM and a cAMP Rel EC50, nM (1% HSA) of 28 nM.

In another assay the target is hGLP-1R (Homo sapiens, UniProt P43220). The assay can be described thus: cell-based or functional assay.
Sequence of hGLP-1R (P43220 24-463): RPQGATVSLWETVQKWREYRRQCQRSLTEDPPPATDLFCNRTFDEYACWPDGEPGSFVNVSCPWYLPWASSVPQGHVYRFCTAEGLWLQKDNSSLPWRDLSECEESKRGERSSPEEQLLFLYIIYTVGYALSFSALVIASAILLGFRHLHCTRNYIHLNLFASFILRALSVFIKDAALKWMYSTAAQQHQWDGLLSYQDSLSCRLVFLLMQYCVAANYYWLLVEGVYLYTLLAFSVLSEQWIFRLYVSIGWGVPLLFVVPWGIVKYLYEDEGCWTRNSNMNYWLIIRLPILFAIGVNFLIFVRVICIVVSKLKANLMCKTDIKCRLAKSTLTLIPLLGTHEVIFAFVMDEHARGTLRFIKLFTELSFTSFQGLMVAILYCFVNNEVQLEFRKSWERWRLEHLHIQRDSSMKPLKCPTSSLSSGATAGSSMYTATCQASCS
B1 displayed a Relative cAMP EC50 of 0.261 nM and a cAMP Rel EC50 (1% HSA) of 38.6 nM.
The molecule B2 gave a Relative cAMP EC50 of 0.258 nM and a cAMP Rel EC50, nM (1% HSA) of 22.9 nM.
For B3, the Relative cAMP EC50 turned out to be 0.256 nM and the cAMP Rel EC50 (1% HSA) came out at 26.4 nM.
Molecule B4 displayed a Relative cAMP EC50 of 0.258 nM and a cAMP Rel EC50 (1% HSA) of 29.1 nM.
In the same order, the values of B5 are 0.212 nM and 29 nM.
In turn, B6 registered a Relative cAMP EC50 of 0.229 nM and a cAMP Rel EC50, nM (1% HSA) of 20.3 nM.
In the case of B7, the cAMP Rel EC50 (1% HSA) was determined as 14 nM.
With B8, the cAMP Rel EC50 (1% HSA) came to 19.5 nM.
Regarding B9, the Relative cAMP EC50 is 0.252 nM and the cAMP Rel EC50 (1% HSA) turned out to be 20.6 nM.
B10 gave a Relative cAMP EC50 of 0.248 nM and a cAMP Rel EC50 (1% HSA) of 30.6 nM.
For the molecule B11, the Relative cAMP EC50 worked out at 0.252 nM and the cAMP Rel EC50 (1% HSA) turned out to be 27.2 nM.
On to B12, for which the Relative cAMP EC50 stood at 0.293 nM and the cAMP Rel EC50, nM (1% HSA) stood at 33.9 nM.
